Data published in paper PMC2843633.

Target: human fibrinogen receptor (GPIIb/IIIa), purified (human) (UniProt P05106)
Assay: ELISA; GPIIb/IIIa coated at 40 nM on Nunc Maxisorb plates; 5′Nuc/SUMO 250 – 1.95 nM in solution, 0.1% Tween 20; detected with polyclonal anti-5′Nuc IgG or anti-SUMO IgG; apparent KD from four experiments

B1: 5′Nuc/SUMO fusion protein (Glossina morsitans morsitans 5′nucleotidase-related protein, recombinant, refolded) (enzyme)
chain: DDLYPLTIMHTNDFHARFEETNVKGNPCKSGEKCIGGLARVLHTIKKIIKEQEKKNIESLYINAGDNFQGTIWYNIGRWNVTSELMNIQPPDVMVLGNHEFDHGIDGLLPFLNNMDKTEIVVANMDARDEPQVAKKIKPFTIIKKKYRNIGVIGVVVEEVPDLANTGKLKFRNESEAILEAARNLKKEDPSVNIIIVVSHVGFDVDKIIAERTGSEVDIIVGGHSHTVLYTGTPPGPEKPEDNYPYVYNHPSGNKVLVVQAVCHAKYVGNLTVFFDKKGKVVTYEGAPIYMDTKVEQDKDVLEAMKPWRKLIDEKTKLVVGRTNVDLPRDICRSEECALGNLYTDSMIYAFGGKENCKSGSTWTTAPIAFVHAGAMRSSLHQGDILYSDALLLSPFTNMVVAYDLPGAQLKAALEFSAAPKNEDEKRRFLQMSGLKVTYNMSRAANNRIVDLKVRTNVCPYDQYENLDEKKTYRVVSPSFLQGGGDGFKMLRDYAKNIQNQKIDLDALVDYLKKFSPLAPKAEGRITIIH
For B1, the Kd was 92 nM.
